Values quoted from earlier work as cited in paper PMC10062658.

Target: PTH1R (Homo sapiens) (UniProt Q03431)
Chain of UniProt Q03431 (Q03431 27-593): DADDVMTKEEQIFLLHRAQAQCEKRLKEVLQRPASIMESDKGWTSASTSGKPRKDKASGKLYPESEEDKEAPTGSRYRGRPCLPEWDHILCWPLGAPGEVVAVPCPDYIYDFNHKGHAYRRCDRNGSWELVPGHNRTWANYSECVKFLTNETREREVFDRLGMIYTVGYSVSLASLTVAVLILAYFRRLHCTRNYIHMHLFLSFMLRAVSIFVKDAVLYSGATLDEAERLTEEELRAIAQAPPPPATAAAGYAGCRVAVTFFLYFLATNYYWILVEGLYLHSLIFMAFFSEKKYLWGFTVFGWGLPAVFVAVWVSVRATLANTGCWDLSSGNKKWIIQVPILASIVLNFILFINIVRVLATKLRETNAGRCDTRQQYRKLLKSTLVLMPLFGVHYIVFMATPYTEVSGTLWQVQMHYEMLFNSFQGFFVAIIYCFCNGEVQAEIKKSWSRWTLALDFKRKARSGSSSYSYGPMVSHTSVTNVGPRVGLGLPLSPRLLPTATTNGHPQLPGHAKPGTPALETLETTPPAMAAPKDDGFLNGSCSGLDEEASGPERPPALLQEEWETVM

For PTH (from UniProt P01270), the Kd is given as 1 nM.
